Measured values as given in US20090060919A1 (AstraZeneca / MedImmune, published 2009).
Numbering of substitutions follows the chain as printed.

B1: Antibody 27 scFv (scFv, V domains shown)
VH: QVQLVQSGAEVKKPGATVKLSCKVYGYIFTDYNIYWVRQAPGKGLEWMGLIDPDNGETFYAEKFQGRATMTADTSSDRAYMELTSLTFEDTATYYCATVSLKEAKGGYDYWGRGTLVTVSS
VL: QSVLTQPPSVSGAPGQRVTISCTGSSSNIGAGYDVHWYQQLPGTAPKLLIYDNFNRPSGVPDRFSGSKSGTSASLAIIGLQTEDEADYYCQSYDSPTQTSPFGTGTKLTVL
notes: Purified scFv, non-germlined
B2: Antibody 21 scFv (scFv, V domains shown)
VH: B1 VH with S100T, E103S
VL: B1 VL with P96S, T97S, T99L
notes: Purified scFv, non-germlined
B3: Antibody 22 scFv (scFv, V domains shown)
VH: B1 VH with S100T, E103S
VL: B1 VL with P96S, T97G, Q98G, T99Y, S100A
notes: Purified scFv, non-germlined
B4: Antibody 23 scFv (scFv, V domains shown)
VH: B1 VH with S100M, L101G, E103W, A104I
VL: B1 VL with P96H, T97H, Q98L, T99Y, P101S
notes: Purified scFv, non-germlined
B5: Antibody 2 scFv (scFv, V domains shown)
VH: B1 VH with K102R, E103S
VL: B1 VL with P96S, T97L, Q98S, T99G, P101L
notes: Purified scFv, non-germlined; not shown: scFv linker and any tags; the libraries are only cited to Vaughan et al. 1996
B6: Antibody 7 scFv (scFv, V domains shown)
VH: B1 VH with S100T, E103S
VL: B1 VL with P96D, T97R, Q98R, T99N
notes: Purified scFv, non-germlined
B7: Antibody 18 scFv (scFv, V domains shown)
VH: B1 VH with S100L, K102R, E103S
VL: B1 VL with P96H, T97L, T99L
notes: Purified scFv, non-germlined
B8: Antibody 14 scFv (scFv, V domains shown)
VH: B1 VH with S100M, L101G, E103W, A104I
VL: B1 VL with P96H, T97H, Q98R, T99H
notes: Purified scFv, non-germlined
B9: Antibody 10 scFv (scFv, V domains shown)
VH: B1 VH with K102R, E103A
VL: B1 VL with P96E, T97Q, Q98E, T99L, S100A
notes: Purified scFv, non-germlined
B10: Antibody 24 scFv (scFv, V domains shown)
VH: B1 VH with S100T, E103T
VL: B1 VL with P96R, T97N, Q98G, T99Y, S100G, P101G
notes: Purified scFv, non-germlined
B11: Antibody 3 scFv (scFv, V domains shown)
VH: B1 VH with S100M, L101G, E103W, A104I
VL: B1 VL with P96T, T97F, Q98N, T99H, S100A
notes: as for B5
B12: Antibody 17 scFv (scFv, V domains shown)
VH: B1 VH with S100T, E103S
VL: B1 VL with P96Q, T97S, Q98S
notes: Purified scFv, non-germlined
B13: Antibody 15 scFv (scFv, V domains shown)
VH: B1 VH with S100T, E103T
VL: B1 VL with P96H, T97K, Q98G, T99Y, S100G, P101G
notes: Purified scFv, non-germlined
B14: Antibody 26 scFv (scFv, V domains shown)
VH: B1 VH
VL: B1 VL with P96A, T97S, Q98R, T99H, S100A
notes: Purified scFv, non-germlined
B15: Antibody 25 scFv (scFv, V domains shown)
VH: B1 VH with S100T, E103S
VL: B1 VL with P96N, T97H, Q98K
notes: Purified scFv, non-germlined
B16: Antibody 28 scFv (scFv, V domains shown)
VH: B1 VH with S100M, L101G, E103W, A104I
VL: B1 VL with P96S, T97S, Q98L, T99H
notes: Purified scFv, non-germlined
B17: Antibody 9 scFv (scFv, V domains shown)
VH: B1 VH with S100T, K102R, E103S
VL: B1 VL with T97S, Q98S
notes: Purified scFv, non-germlined
B18: Antibody 18 IgG (antibody, V domains shown)
VH: B1 VH with S100L, K102R, E103S
VL: B1 VL with P96H, T97L, T99L
notes: Whole human IgG (section 1.4: IgG1)
B19: Antibody 6 IgG (antibody, V domains shown)
VH: B1 VH with S100M, L101G, E103W, A104I
VL: B1 VL with P96T, T97M, Q98R, T99H, S100G
notes: as for B18
B20: Antibody 20 IgG (antibody, V domains shown)
VH: B1 VH with S100M, L101G, E103W, A104I
VL: B1 VL with P96S, Q98S, T99S
notes: as for B18
B21: Antibody 5 IgG (antibody, V domains shown)
VH: B1 VH with S100M, L101G, E103W, A104I
VL: B1 VL with P96T, T97K, Q98H
notes: as for B18
B22: Antibody 4 IgG (antibody, V domains shown)
VH: B1 VH with S100M, L101G, E103W, A104I
VL: B1 VL with P96R, T97G, Q98G, T99H
notes: as for B18
B23: Antibody 13 IgG (antibody, V domains shown)
VH: B1 VH with S100M, L101G, E103W, A104I
VL: B1 VL with P96N, T97I, Q98L, T99Y
notes: as for B18
B24: Antibody 16 IgG (antibody, V domains shown)
VH: B1 VH with E103S
VL: B1 VL with P96R, T97H, Q98H, T99H, S100A
notes: as for B18
B25: Antibody 23 IgG (antibody, V domains shown)
VH: B1 VH with S100M, L101G, E103W, A104I
VL: B1 VL with P96H, T97H, Q98L, T99Y, P101S
notes: as for B18
B26: Antibody 19 IgG (antibody, V domains shown)
VH: B1 VH with S100M, L101G, E103W, A104I
VL: B1 VL with P96T, T97L, Q98S, T99H
notes: as for B18
B27: Antibody 28 IgG (antibody, V domains shown)
VH: B1 VH with S100M, L101G, E103W, A104I
VL: B1 VL with P96S, T97S, Q98L, T99H
notes: as for B18
B28: Antibody 12 IgG (antibody, V domains shown)
VH: B1 VH with S100M, L101G, E103W, A104I
VL: B1 VL with P96S, T97I, Q98D, T99H
notes: as for B18
B29: Antibody 1 scFv (scFv, V domains shown)
VH: B1 VH with S100L, L101H, K102R, E103R, A104L
VL: B1 VL with P96S, T97L, Q98S, T99G, P101L
notes: Purified scFv, non-germlined; also called parent; not shown: scFv linker and any tags; the libraries are only cited to Vaughan et al. 1996
B30: Antibody 5 scFv (scFv, V domains shown)
VH: B1 VH with S100M, L101G, E103W, A104I
VL: B1 VL with P96T, T97K, Q98H
notes: as for B5
B31: Antibody 16 scFv (scFv, V domains shown)
VH: B1 VH with E103S
VL: B1 VL with P96R, T97H, Q98H, T99H, S100A
notes: Purified scFv, non-germlined
B32: Antibody 8 scFv (scFv, V domains shown)
VH: B1 VH with S100L, L101G, K102R, E103W, A104I
VL: B1 VL with Q98H
notes: Purified scFv, non-germlined
B33: Antibody 4 scFv (scFv, V domains shown)
VH: B1 VH with S100M, L101G, E103W, A104I
VL: B1 VL with P96R, T97G, Q98G, T99H
notes: as for B5
B34: Antibody 11 scFv (scFv, V domains shown)
VH: B1 VH with S100M, L101G, E103W, A104I
VL: B1 VL with Q98L
notes: Purified scFv, non-germlined
B35: Antibody 22 IgG (antibody, V domains shown)
VH: B1 VH with S100T, E103S
VL: B1 VL with P96S, T97G, Q98G, T99Y, S100A
B36: Antibody 26 IgG (antibody, V domains shown)
VH: B1 VH
VL: B1 VL with P96A, T97S, Q98R, T99H, S100A
B37: Antibody 21 IgG (antibody, V domains shown)
VH: B1 VH with S100T, E103S
VL: B1 VL with P96S, T97S, T99L
B38: Antibody 6 scFv (scFv, V domains shown)
VH: B1 VH with S100M, L101G, E103W, A104I
VL: B1 VL with P96T, T97M, Q98R, T99H, S100G
notes: as for B5
B39: Antibody 13 scFv (scFv, V domains shown)
VH: B1 VH with S100M, L101G, E103W, A104I
VL: B1 VL with P96N, T97I, Q98L, T99Y
notes: Purified scFv, non-germlined
B40: Antibody 12 scFv (scFv, V domains shown)
VH: B1 VH with S100M, L101G, E103W, A104I
VL: B1 VL with P96S, T97I, Q98D, T99H
notes: Purified scFv, non-germlined

biological target: T1, human IgEλ (U266 derived) (human, UniProt P01854-1 1-428); assay: HTRF competition: scFv against Eu-cryptate human IgE binding to human FcεRI-Fc
T1 construct: Whole IgE purified from U266 cells (Ikeyama et al. 1986); labelled with europium cryptate or biotin in some assays; also called human IgE (U266-derived); human IgE lambda
T1 sequence (P01854 other isoform, or with tags, fused parts or gaps): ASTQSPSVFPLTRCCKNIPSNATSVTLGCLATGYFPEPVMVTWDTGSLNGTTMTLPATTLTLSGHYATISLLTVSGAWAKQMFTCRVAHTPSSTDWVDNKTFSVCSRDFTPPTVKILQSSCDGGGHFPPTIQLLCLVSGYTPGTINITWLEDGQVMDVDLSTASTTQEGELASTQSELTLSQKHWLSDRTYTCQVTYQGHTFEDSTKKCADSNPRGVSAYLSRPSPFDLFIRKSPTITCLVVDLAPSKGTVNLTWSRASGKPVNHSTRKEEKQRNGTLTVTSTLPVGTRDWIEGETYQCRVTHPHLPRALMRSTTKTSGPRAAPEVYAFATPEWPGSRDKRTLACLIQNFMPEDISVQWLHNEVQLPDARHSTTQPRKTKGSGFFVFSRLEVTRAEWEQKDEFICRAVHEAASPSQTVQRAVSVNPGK

In order of falling IC50:
1. B5  28 nM
2. B14  12 nM
3. B7  11 nM
4. B9  10 nM
5. B1  9 nM
6. B6  9 nM
7. B10  9 nM
8. B17  9 nM
9. B8  8 nM
10. B15  8 nM
11. B13  7 nM
12. B2  6 nM
13. B3  6 nM
14. B12  6 nM
15. B11  5 nM
16. B4  1 nM
17. B16  1 nM

biological target: T1, human IgEλ (U266 derived); assay: SPR (BIAcore 2000): IgG captured on protein G', IgE as analyte, bivalent analyte model; geomean
Protocol: In brief, Protein G′ (Sigma Aldrich, P4689) was covalently coupled to the surface of a CM5 sensor chip using standard amine coupling reagents according to manufacturer's instructions (BIAcore). […] The resulting sensorgrams were evaluated using BIA evaluation 3.1 software and fitted to a bivalent analyte model, to provide relative binding data.

In order of rising Kd:
1. B19  2.1 nM
2. B22  2.1 nM
3. B23  2.3 nM
4. B28  2.3 nM
5. B21  2.4 nM
6. B26  2.5 nM
7. B25  2.7 nM
8. B27  3.2 nM
9. B20  3.3 nM
10. B24  4.6 nM
11. B18  8 nM

biological target: T1, human IgEλ (U266 derived); assay: HTRF competition: scFv against Eu-cryptate human IgE binding to human FcεRI-Fc; geomean (95% CI)

In order of rising IC50:
1. B33  2 nM
2. B34  2 nM
3. B30  3 nM
4. B31  5 nM
5. B32  5 nM
6. B29  475 nM

biological target: T1, human IgEλ (U266 derived); assay: cell-based or functional assay

In order of falling “RBL-ER51 calcium signalling IC50 (Geomean), Human IgE” value:
1. B18  0.532 nM
2. B36  0.398 nM
3. B37  0.306 nM
4. B24  0.292 nM
5. B35  0.262 nM
6. B20  0.191 nM
7. B28  0.134 nM
8. B25  0.109 nM
9. B27  0.099 nM
10. B19  0.096 nM
11. B26  0.095 nM
12. B21  0.091 nM
13. B22  0.088 nM
14. B23  0.088 nM

biological target: recombinant chimaeric cynomolgus IgE (D12 variable regions, cynomolgus IgE constant region) (cynomolgus monkey); assay: cell-based or functional assay
Sequence (heavy, as listed by the source limits assumed, chain 1 of 2): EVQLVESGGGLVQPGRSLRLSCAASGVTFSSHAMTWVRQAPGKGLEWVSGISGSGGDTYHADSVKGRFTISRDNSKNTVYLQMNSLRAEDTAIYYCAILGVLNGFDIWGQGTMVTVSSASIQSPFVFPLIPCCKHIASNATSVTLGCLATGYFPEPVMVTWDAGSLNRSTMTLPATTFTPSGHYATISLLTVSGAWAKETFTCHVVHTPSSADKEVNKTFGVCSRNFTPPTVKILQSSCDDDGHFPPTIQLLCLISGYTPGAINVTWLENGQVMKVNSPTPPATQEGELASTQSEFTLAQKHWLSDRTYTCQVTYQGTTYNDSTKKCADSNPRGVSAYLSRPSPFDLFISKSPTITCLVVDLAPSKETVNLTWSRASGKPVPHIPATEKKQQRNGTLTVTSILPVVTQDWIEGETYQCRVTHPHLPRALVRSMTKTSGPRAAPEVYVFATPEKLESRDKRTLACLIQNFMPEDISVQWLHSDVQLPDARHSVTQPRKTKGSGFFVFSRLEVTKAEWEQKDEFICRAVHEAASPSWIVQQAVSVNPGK
Sequence (light, as listed by the source limits assumed, chain 2 of 2): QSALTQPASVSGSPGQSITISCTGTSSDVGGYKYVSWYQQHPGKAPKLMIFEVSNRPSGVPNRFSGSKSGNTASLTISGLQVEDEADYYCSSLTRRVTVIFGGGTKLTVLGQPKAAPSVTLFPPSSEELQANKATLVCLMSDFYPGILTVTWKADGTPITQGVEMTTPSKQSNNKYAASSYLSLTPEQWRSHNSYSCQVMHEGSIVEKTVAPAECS

In order of rising “RBL-ER51 calcium signalling IC50 (Geomean), Cynomolgus IgE” value:
1. B35  2.66 nM
2. B37  3.58 nM
3. B36  5.1 nM

biological target: T1, human IgEλ (U266 derived); assay: HTRF competition: scFv against Eu-cryptate human IgE binding to human FcεRI-Fc; geomean

In order of rising IC50:
1. B39  2 nM
2. B38  3 nM
3. B40  3 nM
